# Test results: patent US20240101682A1 (PINETREE THERAPEUTICS, published 2024)
# Assays:
# [1] = biological target: T1, recombinant human NRP1, biotinylated (human, UniProt O14786-2 22-644, limits assumed, biotinylated (site not stated)); assay: BLI (Octet Red 96), biotinylated antigen on streptavidin sensor, bsAb in solution, bivalent format
# T1 construct: also called huNRP1; recombinant NRP1
# [2] = biological target: T2, recombinant human EGFR, biotinylated (human, UniProt P00533 25-645, biotinylated (site not stated)); assay: as above
# T2 construct: also called huEGFR; recombinant huEGFR
Kd [1] [nM],Kd [2] [nM],Binder
69.7,–,"bsAb with heavy chain polypeptide SEQ ID NO: 1 and light chain SEQ ID NO: 12 (control) (bispecific antibody, human IgG2, kappa) heavy: QVQLQESGPGLVKPSETLSLTCTVSGGSVSSGDYYWTWIRQSPGKGLEWIGHIYYSGNTNYNPSLKSRLTISIDTSKTQFSLKLSSVTAADTAIYYCVRDRVTGAFDIWGQGTMVTVSSASTKGPSVFPLAPCSRSTSESTAALGCLVKDYFPEPVTVSWNSGALTSGVHTFPAVLQSSGLYSLSSVVTVPSSNFGTQTYTCNVDHKPSNTKVDKTVERKCCVECPPCPAPPVAGPSVFLFPPKPKDTLMISRTPEVTCVVVDVSHEDPEVQFNWYVDGVEVHNAKTKPREEQFNSTFRVVSVLTVVHQDWLNGKEYKCKVSNKGLPAPIEKTISKTKGQPREPQVYTLPPSREEMTKNQVSLTCLVKGFYPSDIAVEWESNGQPENNYKTTPPMLDSDGSFFLYSKLTVDKSRWQQGNVFSCSVMHEALHNHYTQKSLSLSPGKGGGGSGGGGSGGGGSHTPGNSKPTRTPRR light: not shown"
0.53,< 0.1,"bsAb with heavy chain polypeptide SEQ ID NO: 3 and light chain SEQ ID NO: 12 (bispecific antibody, human IgG2, kappa) heavy: QVQLQESGPGLVKPSETLSLTCTVSGGSVSSGDYYWTWIRQSPGKGLEWIGHIYYSGNTNYNPSLKSRLTISIDTSKTQFSLKLSSVTAADTAIYYCVRDRVTGAFDIWGQGTMVTVSSASTKGPSVFPLAPCSRSTSESTAALGCLVKDYFPEPVTVSWNSGALTSGVHTFPAVLQSSGLYSLSSVVTVPSSNFGTQTYTCNVDHKPSNTKVDKTVERKCCVECPPCPAPPVAGPSVFLFPPKPKDTLMISRTPEVTCVVVDVSHEDPEVQFNWYVDGVEVHNAKTKPREEQFNSTFRVVSVLTVVHQDWLNGKEYKCKVSNKGLPAPIEKTISKTKGQPREPQVYTLPPSREEMTKNQVSLTCLVKGFYPSDIAVEWESNGQPENNYKTTPPMLDSDGSFFLYSKLTVDKSRWQQGNVFSCSVMHEALHNHYTQKSLSLSPGKGGGGSGGGGSGGGGSEVQLVESGGGLVQPGGSLRLSCAASGFTFSSYAMSWVRQAPGKGLEWVSQISPAGGYTNYADSVKGRFTISADTSKNTAYLQMNSLRAEDTAVYYCARGELPYFRMSKVMDVWGQGTLVTVSSGGGGSGGGGSGGGGSDIQMTQSPSSLSASVGDRVTITCRASQFLSSYLAWYQQKPGKAPKLLIYGASARASGVPSRFSGSGSGTDFTLTISSLQPEDFATYYCQQYLASPATFGQGTKVEIK light: not shown"
0.19,< 0.1,"bsAb with heavy chain polypeptide SEQ ID NO: 2 and light chain SEQ ID NO: 12 (bispecific antibody, human IgG2, kappa) heavy: QVQLQESGPGLVKPSETLSLTCTVSGGSVSSGDYYWTWIRQSPGKGLEWIGHIYYSGNTNYNPSLKSRLTISIDTSKTQFSLKLSSVTAADTAIYYCVRDRVTGAFDIWGQGTMVTVSSASTKGPSVFPLAPCSRSTSESTAALGCLVKDYFPEPVTVSWNSGALTSGVHTFPAVLQSSGLYSLSSVVTVPSSNFGTQTYTCNVDHKPSNTKVDKTVERKCCVECPPCPAPPVAGPSVFLFPPKPKDTLMISRTPEVTCVVVDVSHEDPEVQFNWYVDGVEVHNAKTKPREEQFNSTFRVVSVLTVVHQDWLNGKEYKCKVSNKGLPAPIEKTISKTKGQPREPQVYTLPPSREEMTKNQVSLTCLVKGFYPSDIAVEWESNGQPENNYKTTPPMLDSDGSFFLYSKLTVDKSRWQQGNVFSCSVMHEALHNHYTQKSLSLSPGKGGGGSGGGGSGGGGSEVQLVESGGGLVQPGGSLRLSCAASGFTFSSYAMSWVRQAPGKGLEWVSQISPAGGYTNYADSVKGRFTISADTSKNTAYLQMNSLRAEDTAVYYCARGELPYYRMSKVMDVWGQGTLVTVSSGGGGSGGGGSGGGGSDIQMTQSPSSLSASVGDRVTITCRASQYFSSYLAWYQQKPGKAPKLLIYGASSRASGVPSRFSGSGSGTDFTLTISSLQPEDFATYYCQQYLGSPPTFGQGTKVEIK light: not shown"
–,< 0.1,"bsAb with heavy chain polypeptide SEQ ID NO: 4 and light chain SEQ ID NO: 12 (bispecific antibody, human IgG2, kappa) heavy: QVQLQESGPGLVKPSETLSLTCTVSGGSVSSGDYYWTWIRQSPGKGLEWIGHIYYSGNTNYNPSLKSRLTISIDTSKTQFSLKLSSVTAADTAIYYCVRDRVTGAFDIWGQGTMVTVSSASTKGPSVFPLAPCSRSTSESTAALGCLVKDYFPEPVTVSWNSGALTSGVHTFPAVLQSSGLYSLSSVVTVPSSNFGTQTYTCNVDHKPSNTKVDKTVERKCCVECPPCPAPPVAGPSVFLFPPKPKDTLMISRTPEVTCVVVDVSHEDPEVQFNWYVDGVEVHNAKTKPREEQFNSTFRVVSVLTVVHQDWLNGKEYKCKVSNKGLPAPIEKTISKTKGQPREPQVYTLPPSREEMTKNQVSLTCLVKGFYPSDIAVEWESNGQPENNYKTTPPMLDSDGSFFLYSKLTVDKSRWQQGNVFSCSVMHEALHNHYTQKSLSLSPGKGGGGSGGGGSGGGGSEVQLVESGGGLVQPGGSLRLSCAASGFTFSSYAMSWVRQAPGKGLEWVSQISPAGGYTNYADSVKGRFTISADTSKNTAYLQMNSLRAEDTAVYYCARGELPYYQMSKVMDVWGQGTLVTVSSGGGGSGGGGSGGGGSDIQMTQSPSSLSASVGDRVTITCRASQYFSSYLAWYQQKPGKAPKLLIYGASARASGVPSRFSGSGSGTDFTLTISSLQPEDFATYYCQQYLASPATFGQGTKVEIK light: not shown"
